In publication PMC5980108, “ARE-mediated decay controls gene expression and cellular metabolism upon oxygen variations”:

T1: dTIS11-6His (UniProt P47980 1-436)
T1 sequence: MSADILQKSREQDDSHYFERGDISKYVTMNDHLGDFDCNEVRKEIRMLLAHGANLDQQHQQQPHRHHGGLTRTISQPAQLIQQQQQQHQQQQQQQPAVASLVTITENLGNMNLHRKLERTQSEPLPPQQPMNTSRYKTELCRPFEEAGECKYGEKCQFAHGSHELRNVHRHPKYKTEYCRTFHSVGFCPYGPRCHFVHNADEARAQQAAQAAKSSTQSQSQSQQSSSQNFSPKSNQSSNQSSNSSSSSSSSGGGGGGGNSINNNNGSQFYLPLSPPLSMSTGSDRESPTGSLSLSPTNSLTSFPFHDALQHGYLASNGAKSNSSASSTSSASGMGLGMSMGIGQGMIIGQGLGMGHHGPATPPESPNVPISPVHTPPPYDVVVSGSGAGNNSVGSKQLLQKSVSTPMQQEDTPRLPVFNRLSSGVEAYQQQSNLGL

B1: TNF ARE (ssRNA)
RNA: CGAUUUAUUUAUUUAGA
B2: Scrambled ImpL3 ARE (ITC) (ssRNA)
RNA: AUUCUAUUGUUUCUUCUUAUAUAUUGUUAUUCUUCACAUAAUGUU
B3: ImpL3 ARE (ITC) (ssRNA)
RNA: UGUUUAUUUUUAGUCCACCUCUCAAUUUAUUUAUUAUUUUUAUGA
B4: CecA1 ARE (ssRNA)
RNA: GAUUAUUUAUAAUUAUUUAUUUAAAGAUCUAUUUAUUC

Molecular target: T1, dTIS11-6His
Test: ITC; 5 uM ZnCl2; ITC: 20 mM MES pH 6.5, 300 mM NaCl, 5 uM ZnCl2, 0.5 mM DTT, 10 C; EMSA: 20 mM Tris pH 7.8, 3 mM MgCl2, 40 mM KCl, 2 mM DTT, 5% glycerol, gel at 4 C
Conditions: protein: recombinant; tags: C-terminal 6His

Binder	Kd	binding result
B1	0.895 µM	–
B2	–	no binding
B3	2.4 µM	–
B4	0.58 µM	–
